“Also recorded” adds a separate entry of the source. Values belong to the molecule of their own block, whether it stands above or below them.
Assays:
HeLa cells = experiment: Immunofluorescence localization of Bcl-2 (mitochondria vs cytosol) after STS; assay type: cell-based, human
Procedure: To further determine the cellular localization of Bcl-2 under apoptotic and non-apoptotic conditions, Immunofluorescence assay was conducted.
Cells in which Bcl-2 is detected at mitochondria (co-localize with MitoTracker), or at the cytosol (showing diffused pattern of staining) were counted.

Bcl-2 [1] = experiment: In vivo ubiquitination assay of Bcl-2 in MEFs; assay type: cell-based, mouse; conditions: WT MEFs, transfected, MG132 for 6 h
Procedure: (§1) Cells were transiently transfected with different constructs as detailed herein and treated with MG132 (20 μM, Alexis) for 6 hours. The medium was aspirated and the cells were washed with 1×PBS at room temperature. The cells were scraped at room temperature in 100 μl of denaturation buffer (1% SDS, 140 mM NaCl, 50 mM Tris-HCl pH 7.4) containing protease inhibitor cocktail (Complete, Roche) and 10 mM NEM to preserve ubiquitine chains. The solution was transferred to 2 ml eppendorf tube. The cells were homogenized by passing through a 25-gauge needle (20 times), and boiled for 10 min after vigorous vortexing. An amount of 400 μl of renaturation buffer (2% TritonX-100, 140 mM NaCl, 50 mM Tris-HCl pH 7.4) containing protease inhibitor cocktail (Complete, Roche) and 10 mM NEM was added to the lysate. After 15 min of centrifugation (10,000 g, 4°), the supernatant was transferred into a clean eppendorf tube. The protein concentration was determined using BCA Protein Assay Kit (Pierce). Western blot analyses were performed following immunoprecipitation with particular antibody.
The possible in vivo ubiquitination of Bcl-2 occurring upon apoptotic induction was next tested in immortalized WT MEFs transiently transfected with Bcl-2, XIAP and ubiquitin and treated with 20 μM MG132 for 6 h. […]

Bcl-2 [2] = experiment: In vivo ubiquitination assay of Bcl-2 in HeLa cells; assay type: cell-based, human; conditions: HeLa cells transfected with Bcl-2, XIAP and ubiquitin, 20 μM MG132 6 h
Procedure: as §1
More specifically, HeLa or ARTS KD HeLa cells were transiently transfected with Bcl-2, XIAP and ubiquitin and treated with 20 μM MG132 for 6 h. […] The cells were harvested and subjected to immunoprecipitation (IP) using anti-Bcl-2 antibodies, followed by immune-blotting (IB) with anti-Bcl-2 antibodies.

BT-549 and HeLa cells = experiment: Cell fractionation: release of Bcl-2 and ARTS to the cytosol after STS; assay type: cell-based, human; conditions: 0.6 μM STS
Procedure: Cells were re-suspended in homogenization buffer [20 mM HEPES-KOH, pH 7.5, 10 mM KCl, 1.5 mM MgCl2, 1 mM sodium EDTA, 1 mM sodium EGTA and 1 mM DTT in the presence of 250 mM sucrose and protease inhibitors (Mini-Complete™, Roche)]. Cell homogenization was performed using a 26 G needle (Sterican® 0.45′25 mm, 26 G′1″, Gr.18, B. Braun #46507683) and 1 mL syringe (1 mL HSW NORMJECT®, Henke-Sass, Wolf GmbH #4010.200V0) using 20 strokes. Homogenates were centrifuged at 500×g for 5 min at 4° C., and the supernatant was centrifuged at 10000×g for 20 min to obtain mitochondria. The supernatant was considered as a cytosolic fraction.
Briefly, cells were harvested and centrifuged at 300×g for 10 min, washed in TBS 2.5 mM pH 7.5, and re-pelletted. Cells were permeabilized for 5 min on ice with cytosolic extraction buffer (250 mM sucrose, 70 mM KCl, 137 mM NaCl, 4.3 mM Na2HPO4, 1.4 mM KH2PO4 pH 7.2, 1× complete protease inhibitor cocktail, Roche) containing freshly prepared digitonin (200 μg/ml, D-5628, Sigma). Cytosolic fraction was isolated by collecting the supernatant after centrifugation at 1000×g for 5 min at 4° C. Cytosolic fraction was separated on a 12% acrylamide gel and transferred to nitrocellulose membranes.
It has been recently shown by some of the inventors that similarly to Bcl-2, ARTS resides at the MOM of living cells (Edison et al., 2012b). […]

Bcl-2 [3] = test system: Bcl-2
Bcl-2 [4] = experiment: IP with anti ARTS antibody in HeLa wt cells, Bcl-2; assay type: binding, human
Procedure: (§2) Co immunoprecipitation was performed as previously described (Gottfried et al., 2004). Briefly, 10 μg of anti-ARTS antibody or 2 μg of anti-Bcl-2 or anti-XIAP antibody were added to the protein lysate and the samples were left rotating overnight at 4° C. On the following day, agarose beads conjugated to protein A/G (Santa Cruz) were added for 4 h. Samples were centrifuged at 4000 rpm, 4° C. for 5 min and washed three times with PBS. Proteins were eluted from beads following 5 min of boiling in sample buffer and separated on 12.5% SDS-PAGE gel, followed by Western blot analysis.
(§3) Further, HeLa wt cells were treated with ABT-263 25 μM for 24 h. 750 μg of total proteins were subjected to Immunoprecipitation (IP) assay using monoclonal mouse anti ARTS Antibody (Ab). Western Blot analysis was performed using Bcl-2, Bcl-xL, ARTS and Actin antibodies. […] This binding is still seen after 24 hours of treatment with ABT-263. The decrease in binding may be the result of lower levels of Bcl-2 and Bcl-xL known to be strongly degraded after 24 hours of apoptosis.

Bcl-2 [5] = experiment: Functional-structural pull-down assay with anti Bcl2 antibody in transfected HeLa cells; assay type: binding, human; conditions: pull-down with Bcl-2 antibodies
Procedure: HeLa cells were transiently transfected with Full length ARTS plasmid and 128 amino acids N′ terminus deletion of ARTS plasmid, for 24 hrs. The cells were extracted using RIPA-SDS lysis buffer. Immunoprecipitation was done by incubation of lysates overnight with anti Bcl2 antibody (BD), followed by precipitation done with protein A/G beads (Santa Cruz). Western blot analysis was performed using monoclonal anti ARTS antibody directed against its unique C terminus (Sigma).
In order to identify the Bcl-2 binding domain in ARTS, the inventors examined whether deletion of different fragments of ARTS, namely, the N-terminal 128 amino-acid residues may have an effect. Therefore, pull-down experiments were performed in HeLa cells transfected with either the full length ARTS or a deletion mutant thereof.

Bcl-2 [6] = experiment: Over-expression of ARTS in COS-7 cells, Bcl-2 levels by Western blot and densitometry; assay type: cell-based; conditions: COS-7 cells, transient transfection
Excerpt: For transient transfections jetPEI™ (Polyplus Transfection) and Transfectol (GeneChoice) reagents were used according to the manufacturers' instructions.
To determine whether ARTS promotes apoptosis by regulating the levels of Bcl-2, the inventors first over-expressed ARTS in COS-7 cells. More specifically, COS-7 cell were transiently transfected with ARTS, Bcl-2 or empty vector or co-transfected with both constructs.

Bcl-2 [7] = experiment: Myc beads pull-down of ARTS and Bcl-2 in co-transfected COS-7 cells; assay type: binding; conditions: COS-7 cells co-transfected with Bcl-2 and ARTS
Procedure: (§4) COS-7 cells were co-transfected with different constructs as detailed herein. The cells were lysed in RIPA buffer (150 mM NaCl, 50 mM Tris-HCl (pH 8), 1% NP-40, 0.5% deoxycholate acid containing protease inhibitors (mini Complete, Roche)). The samples were left rotating overnight at 4° C. with the anti-Myc-beads (Santa Cruz). Samples were centrifuged at 4000 rpm, 4° C. for 5 min and washed four times in PBS. Proteins were eluted from beads following 5 min of boiling in sample buffer. Proteins were separate on 12.5% SDS-PAGE gel, followed by Western blot analysis.
The mechanism by which ARTS regulates Bcl-2 levels was further tested using a pull-down assay in COS-7 cells which were co-transfected with Bcl-2 and ARTS expression vectors. Pull-down assays were performed using agarose anti-myc beads followed by Western blot analysis using mouse anti-ARTS and anti-Bcl-2 antibodies.

XIAP and Bcl-2 = molecular target: T1, XIAP and Bcl-2 (Homo sapiens, UniProt P10415+P98170); experiment: Pull-down of myc-XIAP in COS-7 cells co-transfected with ARTS, flag-Bcl-2 and myc-XIAP; assay type: binding
T1 construct: expressed in transfected cells; host or cells: COS-7
T1 sequence (P98170 whole entry): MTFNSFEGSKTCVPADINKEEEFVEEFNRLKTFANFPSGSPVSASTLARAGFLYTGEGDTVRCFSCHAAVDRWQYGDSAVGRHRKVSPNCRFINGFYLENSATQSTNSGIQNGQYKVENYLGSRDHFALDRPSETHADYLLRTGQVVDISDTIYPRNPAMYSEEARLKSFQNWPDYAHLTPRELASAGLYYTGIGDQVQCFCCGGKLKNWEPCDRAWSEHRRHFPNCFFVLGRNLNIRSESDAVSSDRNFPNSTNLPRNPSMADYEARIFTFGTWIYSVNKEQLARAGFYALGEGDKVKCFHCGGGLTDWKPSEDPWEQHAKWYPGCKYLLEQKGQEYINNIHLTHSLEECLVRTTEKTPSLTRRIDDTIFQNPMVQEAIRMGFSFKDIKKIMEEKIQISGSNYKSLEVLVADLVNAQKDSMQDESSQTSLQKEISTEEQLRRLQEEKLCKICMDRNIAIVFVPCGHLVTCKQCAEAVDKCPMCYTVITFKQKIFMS
T1 sequence (P10415 whole entry): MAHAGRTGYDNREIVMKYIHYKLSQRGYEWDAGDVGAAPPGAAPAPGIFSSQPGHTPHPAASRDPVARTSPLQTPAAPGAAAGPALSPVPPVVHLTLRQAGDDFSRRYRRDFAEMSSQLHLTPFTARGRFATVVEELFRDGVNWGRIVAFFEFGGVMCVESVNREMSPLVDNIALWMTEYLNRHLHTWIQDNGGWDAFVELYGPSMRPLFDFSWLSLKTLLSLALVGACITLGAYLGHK
Procedure: as §4
Further understanding and evaluation of the relative contribution of ARTS to the formation of a complex with Bcl-2 and XIAP was obtained by over-expressing ARTS, Bcl-2, and XIAP alone or all together in COS-7 cells, which contain relatively small amounts of endogenous ARTS.
FIGS. 5A and 5B show results of COS-7 cells (pull down and lysates) transiently co-transfected with combinations of ARTS, flag-Bcl-2, and myc-XIAP constructs. Pull-down of XIAP was performed using anti-myc beads, and the precipitate was subjected to western blot analyses. […] This weak binding was attributed to the presence of low endogenous levels of ARTS in these COS-7 cells resulting in almost no formation of the complex.

Bcl-2 [8] = experiment: Bimolecular Fluorescence Complementation (BiFC) with flow cytometry, ARTS and Bcl-2; assay type: binding, human; conditions: living cells, 30 minutes after apoptotic induction, data not shown
Excerpt: (§5) The Bimolecular Fluorescence Complementation (BiFC) assay, provides a simple and direct way to visualize protein-protein interactions in real-time and in living cells. The method is based on formation of a fluorescent complex through the association of two fragments of a fluorescent protein, brought together by an interaction between proteins fused to the fragments. This method is especially attractive because the Green fluorescent protein (GFP) or Yellow fluorescent protein (YFP) chromophore forms spontaneously on protein folding in virtually every cell type tested (Kerppola, 2006).
(§6) Direct binding between [ARTS and Bcl-2] and [XIAP and Bcl-2] was examined using the BiFC system. […]
(§7) Transfection was performed using 200 ng of each plasmid together with 50 ng of pdsRED plasmid which served as control for transfection efficiency. […] Flow cytometry analyses of cell suspensions were performed using a fluorescence-activated cell sorter (FACSCantoII; BD Biosciences) equipped with an argon laser emitting at 488 nm. […] Results were analyzed using […] software (BD Biosciences). A ratio between YFP fluorescence and Red fluorescence was calculated for each time point.
(§8) To further investigate the binding relationships within this complex, the split-Venus, Bimolecular Fluorescence Complementation (BiFC) system was used. […]

Bcl-2 and XIAP = experiment: Immunoprecipitation with anti-ARTS monoclonal antibody in HeLa, BT-549 and COS-7 cells; assay type: binding; conditions: BT-549 and 6-Myc-ARTS transfected COS-7 cells
Procedure: as §2

XIAP [9] = molecular target: T2, XIAP (Homo sapiens, UniProt P98170); conditions: in vitro and in vivo; cited from earlier work
T2 sequence (P98170 whole entry): as the sequence (P98170 whole entry) above

Bcl-XL = Bcl-XL (Homo sapiens, UniProt Q07817); experiment: IP with anti ARTS antibody in HeLa wt cells, Bcl-xL; assay type: binding; design: endogenous in cells; host or cells: HeLa wt cells
Chain of Bcl-XL (Q07817 whole entry): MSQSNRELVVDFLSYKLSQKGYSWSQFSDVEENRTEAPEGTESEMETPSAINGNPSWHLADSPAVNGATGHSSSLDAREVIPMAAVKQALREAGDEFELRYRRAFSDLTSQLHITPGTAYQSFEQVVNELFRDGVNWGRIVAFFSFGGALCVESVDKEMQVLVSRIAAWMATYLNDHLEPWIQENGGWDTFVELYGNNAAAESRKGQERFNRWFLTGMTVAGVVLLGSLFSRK
Procedure: as §2, §3

XIAP [10] = molecular target: T2, XIAP; experiment: Bimolecular Fluorescence Complementation (BiFC) with flow cytometry, ARTS and XIAP; assay type: binding; design: expressed in transfected cells; host or cells: HeLa; conditions: living cells, 30 minutes after apoptotic induction, data not shown
Excerpt: as §5, §6, §7, §8

Molecule: CN[C@@H]1C[C@H]2O[C@@](C)([C@@H]1OC)n1c3ccccc3c3c4c(c5c6ccccc6n2c5c31)C(=O)NC4 [STS, staurosporine]
cells exhibiting Bcl-2 in the cytosol (HeLa cells; HeLa cells transfected with Bcl-2, 180 minutes of STS treatment): 94% | cells exhibiting Bcl-2 in their cytosol (HeLa cells; HeLa cells transfected with Bcl-2, sixty minutes following STS treatment): 63% | polyubiquitinated forms of Bcl-2 following apoptotic induction (Bcl-2 [1]): accumulation of polyubiquitinated forms of Bcl-2; also recorded: accumulation of poly-ubiquitinated forms of Bcl-2; also recorded: poly-ubiquitinated forms of Bcl-2 detected | time of appearance of Bcl-2 polyubiquitinated forms (Bcl-2 [1]): ≤ 30 min | time at which poly-ubiquitinated forms of Bcl-2 are seen (Bcl-2 [2]; 1.5 μM STS): ≤ 30 min | poly-ubiquitinated forms of Bcl-2 after induction of apoptosis (Bcl-2 [2]; 1.5 μM STS 0.5 h): significant accumulation of poly-ubiquitinated forms of Bcl-2 | time at which Bcl-2 and ARTS are found in the cytosol after apoptosis induction (BT-549 and HeLa cells): 2 to 15 min | Bcl-2 levels (Bcl-2 [3]; HeLa cells, 60 and 180 minutes treatments with STS): decrease in Bcl-2 levels | Bcl-2 levels upon induction of apoptosis (Bcl-2 [3]; different cell lines and mouse embryonic fibroblasts (MEFs), Western blot): down regulated

ability of XIAP to bind to Bcl-2 on over-expression of ARTS (XIAP and Bcl-2): significantly increased | binding to Bcl-2 (BiFC fluorescence) (Bcl-2 [8]): Strong binding | binding to Bcl-xL in living cells (Bcl-XL): binds | binding to XIAP (BiFC fluorescence) (XIAP [10]): Strong binding
B1: ARTS: septin-like mitochondrial protein; human ARTS of 274 amino acid residues, GenBank Accession No. AF176379 (protein, listed as Homo sapiens)
chain: MIKRFLEDTTDDGELSKFVKDFSGNASCHPPEAKTWASRPQVPEPRPQAPDLYDDDLEFRPPSRPQSSDNQQYFCAPAPLSPSARPRSPWGKLDPYDSSEDDKEYVGFATLPNQVHRKSVKKGFDFTLMVAGESGLGKSTLVNSLFLTDLYRDRKLLGAEERIMQTVEITKHAVDIEEKGVRLRLTIVDTPGFGDAVNNTECWKPVAEYIDQQFEQYFRDESGLNRKNIQDNRVHCCLYFISPFGHGYGPSLRLLAPPGAVKGTGQEHQGQGCH
binding to Bcl-2 in living cells (Bcl-2 [4]): binds | binding to Bcl-2 (Bcl-2 [5]): binds to Bcl-2 | Bcl-2 levels on over expression (Bcl-2 [6]): reduction in Bcl-2 levels | complex with Bcl-2 (Bcl-2 [7]): forms a complex with Bcl-2 | complex of ARTS, Bcl-2 and XIAP (Bcl-2 and XIAP): form a complex | binding to XIAP (XIAP [9]): binds directly to XIAP
